This note sets out measurements from PMC10397247.

One assay addresses T1, 4H391-AA.
T1 chain: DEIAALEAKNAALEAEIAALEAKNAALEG
Nature of the assay: two-hybrid library CCmax.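 Note: natural log of median RNA to DNA barcode read ratio; higher means stronger binding.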 The note with it: mean of both orientations.

A further assay concerns the target T2, 4H497-AA.
T2 chain: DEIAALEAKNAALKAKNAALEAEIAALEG
Nature of the assay: two-hybrid library CCmax.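 Note: natural log of median RNA to DNA barcode read ratio; higher means stronger binding.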 The note with it: mean of both orientations.

In another assay the target is T3, 4H3709-AA.
T3 chain: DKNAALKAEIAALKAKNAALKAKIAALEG
Briefly: two-hybrid library CCmax.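 Note: natural log of median RNA to DNA barcode read ratio; higher means stronger binding.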 The note with it: mean of both orientations.

The target of the next assay is T4, 4H971-AA.
T4 chain: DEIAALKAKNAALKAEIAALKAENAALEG
Nature of the assay: two-hybrid library CCmax.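 Note: natural log of median RNA to DNA barcode read ratio; higher means stronger binding.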 The note with it: mean of both orientations.

For another assay, the target named is T5, 4H3939-AA.
T5 chain: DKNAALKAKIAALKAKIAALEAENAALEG
Nature of the assay: two-hybrid library CCmax.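 Note: natural log of median RNA to DNA barcode read ratio; higher means stronger binding.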 The note with it: mean of both orientations.

The target of the next assay is T6, 4H675-AA.
T6 chain: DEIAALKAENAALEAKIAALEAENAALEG
Briefly: two-hybrid library CCmax.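 Note: natural log of median RNA to DNA barcode read ratio; higher means stronger binding.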 The note with it: mean of both orientations.

For a further assay, the target named is T7, 4H3920-AA.
T7 chain: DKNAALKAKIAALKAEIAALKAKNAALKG
Nature of the assay: two-hybrid library CCmax. Conditions: mean of both orientations.

The next assay has as its target T8, 4H428-AA.
T8 chain: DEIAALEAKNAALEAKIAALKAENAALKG
Nature of the assay: two-hybrid library CCmax. The note with it: mean of both orientations.

The target of the next assay is T9, 4H3628-AA.
T9 chain: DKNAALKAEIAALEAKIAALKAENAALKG
Briefly: two-hybrid library CCmax.

The target in a further assay is T10, 4H656-AA.
T10 chain: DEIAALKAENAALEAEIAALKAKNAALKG
Briefly: two-hybrid library CCmax. The note with it: mean of both orientations.

Another assay addresses T11, 4H3666-AA.
T11 chain: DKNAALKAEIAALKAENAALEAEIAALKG
Nature of the assay: two-hybrid library CCmax. Conditions: mean of both orientations.

Another assay has as its target T12, 4H478-AA.
T12 chain: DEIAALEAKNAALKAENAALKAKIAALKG
Nature of the assay: two-hybrid library CCmax. Conditions: mean of both orientations.

The target of another assay is T13, 4H881-AA.
T13 chain: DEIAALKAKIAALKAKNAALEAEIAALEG
Briefly: two-hybrid library CCmax. The note with it: mean of both orientations.

In the next assay the target is T14, 4H2949-AA.
T14 chain: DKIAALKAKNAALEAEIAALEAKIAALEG
Briefly: two-hybrid library CCmax. Conditions: mean of both orientations.

Another assay concerns the target T15, 4H993-AA.
T15 chain: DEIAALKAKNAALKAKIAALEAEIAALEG
Nature of the assay: two-hybrid library CCmax. Conditions: mean of both orientations.

Another assay has as its target T16, 4H342-AA.
T16 chain: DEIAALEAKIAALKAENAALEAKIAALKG
Nature of the assay: two-hybrid library CCmax. Conditions: mean of both orientations.

A further assay addresses T17, 4H3627-AA.
T17 chain: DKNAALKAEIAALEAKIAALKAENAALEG
Briefly: two-hybrid library CCmax. Conditions: mean of both orientations.

A further assay deals with T18, 4H48-AA.
T18 chain: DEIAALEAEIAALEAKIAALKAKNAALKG
Briefly: two-hybrid library CCmax. The note with it: mean of both orientations.

The target of a further assay is T19, 4H2883-AA.
T19 chain: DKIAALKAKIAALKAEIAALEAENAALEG
Nature of the assay: two-hybrid library CCmax.

In another assay the target is T20, 4H2944-AA.
T20 chain: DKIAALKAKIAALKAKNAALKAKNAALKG
Briefly: two-hybrid library CCmax. Conditions: mean of both orientations.

The next assay has as its target T21, 4H906-AA.
T21 chain: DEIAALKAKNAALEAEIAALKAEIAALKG
Nature of the assay: two-hybrid library CCmax. Conditions: mean of both orientations.

For the next assay, the target named is T22, 4H3921-AA.
T22 chain: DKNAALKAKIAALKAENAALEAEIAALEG
Briefly: two-hybrid library CCmax. Conditions: mean of both orientations.

For a further assay, the target named is T23, 4H3112-AA.
T23 chain: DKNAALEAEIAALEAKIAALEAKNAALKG
Nature of the assay: two-hybrid library CCmax. The note with it: mean of both orientations.

In another assay the target is T24, 4H3427-AA.
T24 chain: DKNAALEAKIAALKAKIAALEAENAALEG
Briefly: two-hybrid library CCmax. The note with it: mean of both orientations.

Another assay addresses T25, 4H3844-AA.
T25 chain: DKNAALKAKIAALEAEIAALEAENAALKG
Nature of the assay: two-hybrid library CCmax. Conditions: mean of both orientations.

For a further assay, the target named is T26, 4H429-AA.
T26 chain: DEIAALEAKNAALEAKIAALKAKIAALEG
Briefly: two-hybrid library CCmax. Conditions: mean of both orientations.

The target in another assay is T27, 4H780-AA.
T27 chain: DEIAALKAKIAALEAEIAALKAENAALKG
Nature of the assay: two-hybrid library CCmax. The note with it: mean of both orientations.

A further assay concerns the target T28, 4H2837-AA.
T28 chain: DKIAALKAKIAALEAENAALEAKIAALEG
Nature of the assay: two-hybrid library CCmax.

Another assay deals with T29, 4H335-AA.
T29 chain: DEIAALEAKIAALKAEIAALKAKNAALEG
Briefly: two-hybrid library CCmax. Conditions: mean of both orientations.

The target in a further assay is T30, 4H317-AA.
T30 chain: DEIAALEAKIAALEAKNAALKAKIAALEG
Briefly: two-hybrid library CCmax. The note with it: mean of both orientations.

The target of another assay is T31, 4H566-AA.
T31 chain: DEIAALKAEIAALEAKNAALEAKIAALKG
Nature of the assay: two-hybrid library CCmax. Conditions: mean of both orientations.

Another assay has as its target T32, 4H605-AA.
T32 chain: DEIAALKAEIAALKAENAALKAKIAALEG
Nature of the assay: two-hybrid library CCmax. The note with it: mean of both orientations.

Another assay deals with T33, 4H454-AA.
T33 chain: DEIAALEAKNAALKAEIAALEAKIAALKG
Briefly: two-hybrid library CCmax. Conditions: mean of both orientations.

A further assay deals with T34, 4H3655-AA.
T34 chain: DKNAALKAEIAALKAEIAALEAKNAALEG
Briefly: two-hybrid library CCmax. The note with it: mean of both orientations.

For a further assay, the target named is T35, 4H794-AA.
T35 chain: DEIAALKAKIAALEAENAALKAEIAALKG
Briefly: two-hybrid library CCmax. The note with it: mean of both orientations.

The target of the next assay is T36, 4H717-AA.
T36 chain: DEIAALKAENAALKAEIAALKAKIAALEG
Briefly: two-hybrid library CCmax. Conditions: mean of both orientations.

The target of a further assay is T37, 4H3343-AA.
T37 chain: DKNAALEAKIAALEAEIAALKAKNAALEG
Briefly: two-hybrid library CCmax. The note with it: mean of both orientations.

The target in another assay is T38, 4H678-AA.
T38 chain: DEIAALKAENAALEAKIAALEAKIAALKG
Nature of the assay: two-hybrid library CCmax. Conditions: mean of both orientations.

The next assay addresses T39, 4H3606-AA.
T39 chain: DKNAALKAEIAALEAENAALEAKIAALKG
Nature of the assay: two-hybrid library CCmax. The note with it: mean of both orientations.

Another assay deals with T40, 4H967-bH.
T40 chain: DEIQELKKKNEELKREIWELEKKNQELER
Nature of the assay: two-hybrid library CCNG1.

The target of a further assay is T41, 4H968-bH.
T41 chain: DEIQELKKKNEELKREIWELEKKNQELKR
Briefly: two-hybrid library CCNG1.

The target of another assay is T42, 4H932-bA.
T42 chain: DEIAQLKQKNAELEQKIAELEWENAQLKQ
Nature of the assay: two-hybrid library CCNG1.

The next assay addresses T43, 4H918-bH.
T43 chain: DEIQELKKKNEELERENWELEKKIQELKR
Nature of the assay: two-hybrid library CCNG1.

Another assay addresses T44, 4H953-bH.
T44 chain: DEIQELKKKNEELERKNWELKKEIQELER
Nature of the assay: two-hybrid library CCNG1.

For the next assay, the target named is T45, 4H87-AA.
T45 chain: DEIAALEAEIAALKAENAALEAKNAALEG
Nature of the assay: two-hybrid library CCmax.

DKNAALKAEIAALEAKIAALKAENAALKG [4H3628-AA]: the interaction score with 4H391-AA was -1.27; with 4H497-AA, -1.67; with 4H3709-AA, -1.58; with 4H971-AA, -1.01; in the assay with 4H3939-AA, 0.744; with 4H675-AA, -1.51. The interaction score was 0.724 with 4H3920-AA; -0.847 in the assay with 4H428-AA; 0.286 in the assay with 4H3628-AA; -1.43 with 4H656-AA; -1.56 in the assay with 4H3666-AA; -2.19 with 4H478-AA.

With DKIAALKAKIAALEAENAALEAKIAALEG [4H2837-AA], the interaction score was 1.65 with 4H881-AA; -0.836 with 4H2949-AA; 1.44 with 4H993-AA; 2.11 with 4H342-AA; -1.3 in the assay with 4H3627-AA; 0.24 in the assay with 4H48-AA. Further, the interaction score is -0.938 with 4H2883-AA; 0.691 with 4H2944-AA; -0.599 in the assay with 4H906-AA; -1.49 in the assay with 4H3921-AA; 1.23 with 4H3112-AA; -2.38 with 4H3427-AA. The interaction score with 4H3844-AA is -1.21; with 4H429-AA it was 0.476; with 4H780-AA, -1.81; in the assay with 4H2837-AA it was 1.42; with 4H335-AA it was -0.534; with 4H317-AA, 1.61. The interaction score in the assay with 4H566-AA is 1.66; with 4H605-AA it was 0.402; in the assay with 4H454-AA, -0.102; with 4H3655-AA it was -0.923; with 4H794-AA, 0.0291; with 4H717-AA, -0.861. Besides, the interaction score with 4H3343-AA was -1.14; with 4H678-AA, -1.18; with 4H3606-AA, -1.14.

Regarding DEIQELKKKNEELERENWELEKKIQELKR [4H918-bH], the interaction score is -0.25 in the assay with 4H967-bH; -0.174 in the assay with 4H968-bH; -1.28 in the assay with 4H932-bA; 1.26 with 4H918-bH; -0.806 with 4H953-bH.

In the assay with 4H87-AA, DEIAALEAEIAALKAENAALEAKNAALEG [4H87-AA] came in with an interaction score of -0.571.
